Test results published in paper PMC9405506, “Thermostable and O2-Insensitive Pyruvate Decarboxylases from Thermoacidophilic Archaea Catalyzing the Production of Acetaldehyde” (Biology, 2022).

Experiments:
purified protein = substrate: CC(=O)C(=O)O; assay: purified protein; assay type: biochemical, Saccharolobus solfataricus; details: POR (oxidative decarboxylation) reaction, 0.1 mM CoA, 1 mM benzyl viologen, 50 µM sodium dithionite, anaerobic, pH 8.0, 80 °C
[1] = substrate: CC(=O)C(=O)O; assay: PDC activity: acetaldehyde by DNPH derivatization and HPLC, Michaelis-Menten fit; assay type: biochemical, Saccharolobus solfataricus; details: PDC (non-oxidative decarboxylation) reaction, 0.1 mM CoA, 100 mM sodium phosphate pH 7.9, 80 °C
From the text: PDC activity: acetaldehyde by DNPH derivatization and HPLC, Michaelis-Menten fit on SsPOR/PDC

B1: SsPOR/PDC (Saccharolobus solfataricus) (protein)
chain 1: MRISWMIGGAQGSGVDTSANIFGNAVAASGYYIYGNREYYSNIKGRHSYFNLTISDKPPRSIAQQIEILTSFDAETIFQHFNEVKDVLIYSTEVENTKAEQVQSMEPEITEHVVKFLKEKGYGTTVKDVINYLKKEKGVKVIPIDYMEILKKVADQAKVQLSVADRARNTIAIAASYKLLGLKEQYLINSITRTFRQEVFAKINTIAAQLAMQQIQPMYNLPELPNNEEKINLDGNTAAAIGKIYGGLRFQSYYPITPASDESVFIEAHQTVFTVDPKTGEKRKSTIVVVQAEDELAAINMASGAALTGVRAATATSGPGFSLMVEGMGWAGMNEVPVVITYYIRGGPSTGQPTRTSQADLMFALNAGHGEFPRIVIASGDHVEAFHDGTWALNLAQKYQTPVIHLVDKALANSYSIIPKKTLGMENIRIEKGKIVINTNTPELKRFEITEDGISPFAPLGTARVHYTGDEHDEYGFIAEASENREKMYEKRIKKLMTADKEIPEESRVNVYGNTDSKVAIITWGSPKGAILDAMEELENEGIKPMLIQIRMFSPFPKNLMRKLLNGKEFIIDVESNYFGQAGEVLKLNTGIEPTHYILKWNGRPMMRDEVKEGIKAVVQKGERRVVLHGGA
chain 2: MAGLKVEWNDWCPGCGNFGILSAEQQAIQELGLDPKKVVLVSGIGCSGKIPHFIRLPASGVHTLHGRALTFAIGIKLANPSLEVIVNGGDGDQLGIGVGHFVSAGRRNVDLTVIVHNNGVYGLTKGQASPTLKLGVKTKSLPKPNINSDINPIALAISSGYTFVARGYAYDVKHLKEIIKKAIKHKGLAMIDVLQPCPTYNDIHTKEYYDKRVYKLDEDPSWDPIVKKPEEMDDKMSKAILKSMEWGDRTPIGIFYQNELVSTYEQRIAERSPSYLDNPPAHDVIEFEGKPTTDVEDILKERRVT
notes: native, purified from cells by DEAE-Sepharose, hydroxyapatite and phenyl-Sepharose; heterodimer (alpha-beta), subunits 37 and about 65 kDa
B1 gave a Km (purified protein) of 500 ± 100 µM, a Vmax (purified protein) of 6.3 µmol/min/mg and a Km [1] of 1100 ± 200 µM. For the same protein, the Vmax [1] was 0.12 µmol/min/mg.
